Experimental data published in patent publication US20020004485A1.
Square brackets hold non-standard residues; d marks the D form. Ends that are not written are not given here. * marks the point of attachment. Benzoyl(3-OMe) = COc1cccc(C(=O)*)c1; Benzoyl(4-OMe) = COc1ccc(C(=O)*)cc1; d2Thi = N[C@H](Cc1cccs1)C(=O)O; dNal = D-naphthylalanine

B1: S-165 (peptide)
peptide: {Benzoyl(4-OMe)}-RKLA[d2Thi]I[dL]-NH2
SMILES: CC[C@H](C)[C@H](NC(=O)[C@@H](Cc1cccs1)NC(=O)[C@H](C)NC(=O)[C@H](CC(C)C)NC(=O)[C@H](CCCCN)NC(=O)[C@H](CCCNC(=N)N)NC(=O)c1ccc(OC)cc1)C(=O)N[C@H](CC(C)C)C(N)=O
B2: S-118 (peptide)
peptide: {Benzoyl(4-OMe)}-AKLL[d2Thi]I[dL]-NH2
SMILES: CC[C@H](C)[C@H](NC(=O)[C@@H](Cc1cccs1)NC(=O)[C@H](CC(C)C)NC(=O)[C@H](CC(C)C)NC(=O)[C@H](CCCCN)NC(=O)[C@H](C)NC(=O)c1ccc(OC)cc1)C(=O)N[C@H](CC(C)C)C(N)=O
B3: SQW-2 (peptide)
peptide: {Benzoyl(4-OMe)}-RRI[dR]P[dK][dL]-NH2
SMILES: CC[C@H](C)[C@H](NC(=O)[C@H](CCCNC(=N)N)NC(=O)[C@H](CCCNC(=N)N)NC(=O)c1ccc(OC)cc1)C(=O)N[C@H](CCCNC(=N)N)C(=O)N1CCC[C@H]1C(=O)N[C@H](CCCCN)C(=O)N[C@H](CC(C)C)C(N)=O
B4: SQW-9 (peptide)
peptide: {Benzoyl(3-OMe)}-RRARPKL-NH2
SMILES: COc1cccc(C(=O)N[C@@H](CCCNC(=N)N)C(=O)N[C@@H](CCCNC(=N)N)C(=O)N[C@@H](C)C(=O)N[C@@H](CCCNC(=N)N)C(=O)N2CCC[C@H]2C(=O)N[C@@H](CCCCN)C(=O)N[C@@H](CC(C)C)C(N)=O)c1
B5: S-167 (peptide)
peptide: {Benzoyl(4-OMe)}-AKLL[d2Thi]I[dL]-NH2
SMILES: CC[C@H](C)[C@H](NC(=O)[C@@H](Cc1cccs1)NC(=O)[C@H](CC(C)C)NC(=O)[C@H](CC(C)C)NC(=O)[C@H](CCCCN)NC(=O)[C@H](C)NC(=O)c1ccc(OC)cc1)C(=O)N[C@H](CC(C)C)C(N)=O
B6: S-116 (peptide)
peptide: {Benzoyl(4-OMe)}-RKLL[dY]I[dL]-NH2
SMILES: CC[C@H](C)[C@H](NC(=O)[C@@H](Cc1ccc(O)cc1)NC(=O)[C@H](CC(C)C)NC(=O)[C@H](CC(C)C)NC(=O)[C@H](CCCCN)NC(=O)[C@H](CCCNC(=N)N)NC(=O)c1ccc(OC)cc1)C(=O)N[C@H](CC(C)C)C(N)=O
B7: SQW-3 (peptide)
peptide: {Benzoyl(4-OMe)}-R[dR]I[dR]P[dK][dL]-NH2
SMILES: CC[C@H](C)[C@H](NC(=O)[C@@H](CCCNC(=N)N)NC(=O)[C@H](CCCNC(=N)N)NC(=O)c1ccc(OC)cc1)C(=O)N[C@H](CCCNC(=N)N)C(=O)N1CCC[C@H]1C(=O)N[C@H](CCCCN)C(=O)N[C@H](CC(C)C)C(N)=O
B8: p-Anisoyl-Arg-Tyr-Tyr-Arg-D-Trp-Lys-NH2 (peptide)
peptide: {Benzoyl(4-OMe)}-RYYR[dW]K-NH2
SMILES: COc1ccc(C(=O)N[C@@H](CCCNC(=N)N)C(=O)N[C@@H](Cc2ccc(O)cc2)C(=O)N[C@@H](Cc2ccc(O)cc2)C(=O)N[C@@H](CCCNC(=N)N)C(=O)N[C@H](Cc2c[nH]c3ccccc23)C(=O)N[C@@H](CCCCN)C(N)=O)cc1
B9: SQW-11 (peptide)
peptide: {Benzoyl(3-OMe)}-RRIRAKL-NH2
SMILES: CC[C@H](C)[C@H](NC(=O)[C@H](CCCNC(=N)N)NC(=O)[C@H](CCCNC(=N)N)NC(=O)c1cccc(OC)c1)C(=O)N[C@@H](CCCNC(=N)N)C(=O)N[C@@H](C)C(=O)N[C@@H](CCCCN)C(=O)N[C@@H](CC(C)C)C(N)=O
B10: SQW-10 (peptide)
peptide: {Benzoyl(3-OMe)}-RRIAPKL-NH2
SMILES: CC[C@H](C)[C@H](NC(=O)[C@H](CCCNC(=N)N)NC(=O)[C@H](CCCNC(=N)N)NC(=O)c1cccc(OC)c1)C(=O)N[C@@H](C)C(=O)N1CCC[C@H]1C(=O)N[C@@H](CCCCN)C(=O)N[C@@H](CC(C)C)C(N)=O
B11: SQW-8 (peptide)
peptide: {Benzoyl(3-OMe)}-RAIRPKL-NH2
SMILES: CC[C@H](C)[C@H](NC(=O)[C@H](C)NC(=O)[C@H](CCCNC(=N)N)NC(=O)c1cccc(OC)c1)C(=O)N[C@@H](CCCNC(=N)N)C(=O)N1CCC[C@H]1C(=O)N[C@@H](CCCCN)C(=O)N[C@@H](CC(C)C)C(N)=O
B12: Ac-Arg-Tyr-Tyr-Arg-D-Trp-Lys-NH2 (peptide)
peptide: Ac-RYYR[dW]K-NH2
SMILES: CC(=O)N[C@@H](CCCNC(=N)N)C(=O)N[C@@H](Cc1ccc(O)cc1)C(=O)N[C@@H](Cc1ccc(O)cc1)C(=O)N[C@@H](CCCNC(=N)N)C(=O)N[C@H](Cc1c[nH]c2ccccc12)C(=O)N[C@@H](CCCCN)C(N)=O
B13: S-160 (peptide)
peptide: {Benzoyl(4-OMe)}-RKAL[d2Thi]I[dL]-NH2
SMILES: CC[C@H](C)[C@H](NC(=O)[C@@H](Cc1cccs1)NC(=O)[C@H](CC(C)C)NC(=O)[C@H](C)NC(=O)[C@H](CCCCN)NC(=O)[C@H](CCCNC(=N)N)NC(=O)c1ccc(OC)cc1)C(=O)N[C@H](CC(C)C)C(N)=O
B14: SQW-4 (peptide)
peptide: {Benzoyl(4-OMe)}-[dR][dR]I[dR]P[dK][dL]-NH2
SMILES: CC[C@H](C)[C@H](NC(=O)[C@@H](CCCNC(=N)N)NC(=O)[C@@H](CCCNC(=N)N)NC(=O)c1ccc(OC)cc1)C(=O)N[C@H](CCCNC(=N)N)C(=O)N1CCC[C@H]1C(=O)N[C@H](CCCCN)C(=O)N[C@H](CC(C)C)C(N)=O
B15: S-162 (peptide)
peptide: {Benzoyl(4-OMe)}-RKLL[d2Thi]I[dA]-NH2
SMILES: CC[C@H](C)[C@H](NC(=O)[C@@H](Cc1cccs1)NC(=O)[C@H](CC(C)C)NC(=O)[C@H](CC(C)C)NC(=O)[C@H](CCCCN)NC(=O)[C@H](CCCNC(=N)N)NC(=O)c1ccc(OC)cc1)C(=O)N[C@H](C)C(N)=O
B16: SQW-7 (peptide)
peptide: {Benzoyl(3-OMe)}-ARIRPKL-NH2
SMILES: CC[C@H](C)[C@H](NC(=O)[C@H](CCCNC(=N)N)NC(=O)[C@H](C)NC(=O)c1cccc(OC)c1)C(=O)N[C@@H](CCCNC(=N)N)C(=O)N1CCC[C@H]1C(=O)N[C@@H](CCCCN)C(=O)N[C@@H](CC(C)C)C(N)=O
B17: S-117 (peptide)
peptide: {Benzoyl(4-OMe)}-RKLL[dW]I[dL]-NH2
SMILES: CC[C@H](C)[C@H](NC(=O)[C@@H](Cc1c[nH]c2ccccc12)NC(=O)[C@H](CC(C)C)NC(=O)[C@H](CC(C)C)NC(=O)[C@H](CCCCN)NC(=O)[C@H](CCCNC(=N)N)NC(=O)c1ccc(OC)cc1)C(=O)N[C@H](CC(C)C)C(N)=O
B18: S-163 (peptide)
peptide: {Benzoyl(4-OMe)}-RKLL[d2Thi]A[dL]-NH2
SMILES: COc1ccc(C(=O)N[C@@H](CCCNC(=N)N)C(=O)N[C@@H](CCCCN)C(=O)N[C@@H](CC(C)C)C(=O)N[C@@H](CC(C)C)C(=O)N[C@H](Cc2cccs2)C(=O)N[C@@H](C)C(=O)N[C@H](CC(C)C)C(N)=O)cc1
B19: S-164 (peptide)
peptide: {Benzoyl(4-OMe)}-RKLL[dA]I[dL]-NH2
SMILES: CC[C@H](C)[C@H](NC(=O)[C@@H](C)NC(=O)[C@H](CC(C)C)NC(=O)[C@H](CC(C)C)NC(=O)[C@H](CCCCN)NC(=O)[C@H](CCCNC(=N)N)NC(=O)c1ccc(OC)cc1)C(=O)N[C@H](CC(C)C)C(N)=O
B20: S-166 (peptide)
peptide: {Benzoyl(4-OMe)}-RALL[d2Thi]I[dL]-NH2
SMILES: CC[C@H](C)[C@H](NC(=O)[C@@H](Cc1cccs1)NC(=O)[C@H](CC(C)C)NC(=O)[C@H](CC(C)C)NC(=O)[C@H](C)NC(=O)[C@H](CCCNC(=N)N)NC(=O)c1ccc(OC)cc1)C(=O)N[C@H](CC(C)C)C(N)=O
B21: mystixin-7 (S-21) (peptide)
peptide: {Benzoyl(4-OMe)}-RKLL[d2Thi]I[dL]-NH2
SMILES: CC[C@H](C)[C@H](NC(=O)[C@@H](Cc1cccs1)NC(=O)[C@H](CC(C)C)NC(=O)[C@H](CC(C)C)NC(=O)[C@H](CCCCN)NC(=O)[C@H](CCCNC(=N)N)NC(=O)c1ccc(OC)cc1)C(=O)N[C@H](CC(C)C)C(N)=O

target: MC receptor endogenous to Xenopus laevis melanophores (Xenopus laevis); assay: cell-based or functional assay

MCR Antagonism IC50 nM In Xenopus [nM] | MCR IC50 nM: antagonism of α-MSH (600 pM) darkening of frog melanophores [nM] | IC50 nM in Frog Melanophore Assay [nM] | IC50 in the frog MCR assay [nM] | Binder
282 |  |  |  | B1
96 |  |  |  | B2
 | 114 |  |  | B3
 | 155 |  |  | B4
1200 |  |  |  | B5
77 |  |  |  | B6
 | 156 |  |  | B7
 |  | 175 |  | B8
 | 188 |  |  | B9
 |  | 1050 |  | Ac-RYYRWK-NH2 [Ac-Arg-Tyr-Tyr-Arg-Trp-Lys-NH2]
 | 187 |  |  | B10
 | 75 |  |  | B11
 |  | 867 |  | B12
 |  |  | > 10000 | QGKRPWIL (peptide, UniProt P07198 74-81, looked up, ends and bridges not checked) [xenopsin]
197 |  |  |  | B13
 | 17 |  |  | B14
43 |  |  |  | B15
 | 110 |  |  | B16
166 |  |  |  | {Benzoyl(4-OMe)}-RKLL[dNal]I[dL]-NH2 [S-114]
22 |  |  |  | B17
234 |  |  |  | B18
26 |  |  |  | B19
1200 |  |  |  | B20
 |  |  | 10000 | SEEPPISLDLTFHLLREVLEMARAEQLAQQAHSNRKLMEII (peptide, UniProt P06850 154-194, looked up) [human CRH]
237 |  |  |  | B21
 |  |  | > 10000 | QGPPISIDLSLELLRKMIEIEKQEKEKQQAANNRLLLDTI (peptide, UniProt P01144 1-40, looked up) [sauvagine]
